Here are results for one protein from ChEMBL document CHEMBL1147236, “Semiplenamides A-G, fatty acid amides from a Papua New Guinea collection of the marine cyanobacterium Lyngbya semiplena” (J Nat Prod, 2003).

Substrate in the data set: CCCCC/C=C\C/C=C\C/C=C\C/C=C\CCCC(=O)NCCO
To be noted: Mus musculus; N18TG2.

Description: Activity at FAAH in mouse N18TG2 cell membranes

B1: Fatty-acid amide hydrolase 1 (Mus musculus), O08914 (protein)
chain: MVLSEVWTALSGLSGVCLACSLLSAAVVLRWTRSQTARGAVTRARQKQRAGLETMDKAVQRFRLQNPDLDSEALLALPLLQLVQKLQSGELSPEAVLFTYLGKAWEVNKGTNCVTSYLTDCETQLSQAPRQGLLYGVPVSLKECFSYKGHASTLGLSLNEGVTSESDCVVVQVLKLQGAVPFVHTNVPQSMLSYDCSNPLFGQTMNPWKPSKSPGGSSGGEGALIGSGGSPLGLGTDIGGSIRFPSAFCGICGLKPTGNRLSKSGLKSCVYGQTAVQLSVGPMARDVDSLALCMKALLCEDLFRLDSTIPPLPFREEIYRSSRPLRVGYYETDNYTMPTPAMRRAVMETKQSLEAAGHTLVPFLPNNIPYALEVLSAGGLFSDGGCSFLQNFKGDFVDPCLGDLVLVLKLPRWFKKLLSFLLKPLFPRLAAFLNSMCPRSAEKLWELQHEIEMYRQSVIAQWKAMNLDVVLTPMLGPALDLNTPGRATGAISYTVLYNCLDFPAGVVPVTTVTAEDDAQMEHYKGYFGDMWDNILKKGMKKGIGLPVAVQCVALPWQEELCLRFMREVERLMTPEKRPS
Broadly, the Km is the substrate concentration at which the rate is half of its maximum. With B1, the Km is 15 µM.
